From patent publication US20250270274A1 (SERPENTIDE, published 2025)
Like-named read-outs stand apart in the source and are kept apart here. Where no end group is shown, it is not given here.

T1: mouse GIP receptor (mouse, UniProt Q0P543 19-460)
T1 sequence (looked up): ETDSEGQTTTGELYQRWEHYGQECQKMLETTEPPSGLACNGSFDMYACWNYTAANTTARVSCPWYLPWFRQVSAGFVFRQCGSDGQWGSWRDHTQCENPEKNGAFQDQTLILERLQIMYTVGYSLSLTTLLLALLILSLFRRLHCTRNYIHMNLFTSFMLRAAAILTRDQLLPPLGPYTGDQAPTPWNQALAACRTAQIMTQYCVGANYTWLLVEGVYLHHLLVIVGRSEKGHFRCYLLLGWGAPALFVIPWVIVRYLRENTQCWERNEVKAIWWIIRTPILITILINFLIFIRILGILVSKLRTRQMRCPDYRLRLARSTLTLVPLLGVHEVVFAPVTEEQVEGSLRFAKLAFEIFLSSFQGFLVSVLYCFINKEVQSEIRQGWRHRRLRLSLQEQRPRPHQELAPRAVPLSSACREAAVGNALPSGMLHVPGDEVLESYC

T2: human GIP receptor (human, UniProt P48546 22-466)
T2 sequence (looked up): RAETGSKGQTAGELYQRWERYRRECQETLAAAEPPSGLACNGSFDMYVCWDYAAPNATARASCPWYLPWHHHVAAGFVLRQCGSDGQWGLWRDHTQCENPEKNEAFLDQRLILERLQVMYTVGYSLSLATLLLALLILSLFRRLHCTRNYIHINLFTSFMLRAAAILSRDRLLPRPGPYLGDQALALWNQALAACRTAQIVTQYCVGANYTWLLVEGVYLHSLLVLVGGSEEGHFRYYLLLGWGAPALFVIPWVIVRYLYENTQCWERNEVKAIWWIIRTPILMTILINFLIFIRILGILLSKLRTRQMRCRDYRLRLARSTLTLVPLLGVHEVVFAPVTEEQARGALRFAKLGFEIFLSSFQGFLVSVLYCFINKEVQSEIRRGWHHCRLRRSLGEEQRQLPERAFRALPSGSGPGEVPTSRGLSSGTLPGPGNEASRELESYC


Columns and labels:
Test in all cases: cell-based or functional assay
human GLP1 receptor [1] = molecular target: T3, human GLP1 receptor (human, UniProt P43220 24-463)
mouse GIP receptor = molecular target: T1, mouse GIP receptor
human GIP receptor [2] = molecular target: T2, human GIP receptor
human GLP1 receptor [3] = molecular target: T3, human GLP1 receptor; remark: listed apart in the source
human GIP receptor [4] = molecular target: T2, human GIP receptor; remark: listed apart in the source

Binder	EC50, HTRF cAMP bioassay (human GLP1 receptor [1]) [nM]	IC50, HTRF cAMP bioassay (mouse GIP receptor) [nM]	EC50, HTRF cAMP bioassay (human GIP receptor [2]) [nM]	EC50, HTRF cAMP bioassay (human GLP1 receptor [3]) [nM]	EC50, HTRF cAMP bioassay (mouse GIP receptor) [nM]	EC50, HTRF cAMP bioassay (human GIP receptor [4]) [nM]
P46: SP01-amG3 (antibody, human IgG4 S228P, kappa, F234A L235A) light: HGEGTFTSDVSSYLEEQAAKEFIAWLVKGGGGGGGSGGGGSGGGGSDVVMTQTPLSLPVSLGDQASISCRSSQSLVHSNGDTYLHWYLQKPGQSPKLLIYKVSNRFSGVPDRFSGSGSGTDFTLKISRVEAADLGVYFCSQSTHVPPFTFGGGTKLEIKRTVAAPSVFIFPPSDEQLKSGTASVVCLLNNFYPREAKVQWKVDNALQSGNSQESVTEQDSKDSTYSLSSTLTLSKADYEKHKVYACEVTHQGLSSPVTKSFNRGEC heavy: not shown	0.034	11.2				
YGEGTFTSDYSIYLDKIAQKAFVQWLIAGGPSSGAPPPS (ends and bridges not checked) [SP02: GLP1/GIP receptor co-agonist analogue]			3.69			
YGEGTFTSDYSIQLDKIAQKAFVQWLIAGGPSSGAPPPS (ends and bridges not checked) [SP03: GLP1/GIP receptor co-agonist analogue]			22	0.225		
P26: SP02-bispecific antibodies for GLP1R and GIPR (bispecific antibody, human IgG1, kappa) chain 1: YGEGTFTSDYSIYLDKIAQKAFVQWLIAGGPSSGAPPPSGGGGSGGGGSGGGGSDIVMTQSPSSLTVTAGEKVTMSCKSSQSLLNSGNQKNYLTWYQQKPGQPPKLLISWASTRDSGVPDRFTGSGSGTDFTLTISSVQAEDLAVYYCQNDYSYPLTFGAGTKLELKRTVAAPSVFIFPPSDEQLKSGTASVVCLLNNFYPREAKVQWKVDNALQSGNSQESVTEQDSKDSTYSLSSTLTLSKADYEKHKVYACEVTHQGLSSPVTKSFNRGEC chain 2: YGEGTFTSDYSIYLDKIAQKAFVQWLIAGGPSSGAPPPSGGGGSGGGGSGGGGSQIVLTQSPAIMSASPGEKVTMTCSASSRVTYMHWYQQRSGTSPKRWIYDTSKLASGVPARFSGSGSGTSYSLTISSMEAEDAATYYCQQWGNNPQYTFGGGTRLEIKRTVAAPSVFIFPPSDEQLKSGTASVVCLLNNFYPREAKVQWKVDNALQSGNSQESVTEQDSKDSTYSLSSTLTLSKADYEKHKVYACEVTHQGLSSPVTKSFNRGEC chain 3: not shown chain 4: not shown	0.12				0.35	48
P28: SP02-amG2 (antibody, human IgG4 S228P, kappa, F234A L235A) light: YGEGTFTSDYSIYLDKIAQKAFVQWLIAGGPSSGAPPPSGGGGSGGGGSGGGGSDIVMTQSPSSLTVTAGEKVTMSCKSSQSLLNSGNQKNYLTWYQQKPGQPPKLLISWASTRDSGVPDRFTGSGSGTDFTLTISSVQAEDLAVYYCQNDYSYPLTFGAGTKLELKRTVAAPSVFIFPPSDEQLKSGTASVVCLLNNFYPREAKVQWKVDNALQSGNSQESVTEQDSKDSTYSLSSTLTLSKADYEKHKVYACEVTHQGLSSPVTKSFNRGEC heavy: not shown	1.25				0.42	69
